According to paper PMC5424161:

Conditions: O-GlcNAc at T241

Substance	degradation_or_half_life	other
YAP (Yes-associated protein): OGT knockdown (shRNA)	decreases	
YAP (Yes-associated protein): T241A	decreases	increases
